Assay results published in article PMC6073210, “Adducin‐1 is essential for spindle pole integrity through its interaction with TPX2” (EMBO Reports, 2018).

B1: FLAG-ADD1 WT (adducin-1), transiently expressed in HEK293 cells [not stated] / GST-TPX2 aa 120–370 fusion protein [human] (parent)
chain 1: MNGDSRAAVVTSPPPTTAPHKERYFDRVDENNPEYLRERNMAPDLRQDFNMMEQKKRVSMILQSPAFCEELESMIQEQFKKGKNPTGLLALQQIADFMTTNVPNVYPAAPQGGMAALNMSLGMVTPVNDLRGSDSIAYDKGEKLLRCKLAAFYRLADLFGWSQLIYNHITTRVNSEQEHFLIVPFGLLYSEVTASSLVKINLQGDIVDRGSTNLGVNQAGFTLHSAIYAARPDVKCVVHIHTPAGAAVSAMKCGLLPISPEALSLGEVAYHDYHGILVDEEEKVLIQKNLGPKSKVLILRNHGLVSVGESVEEAFYYIHNLVVACEIQVRTLASAGGPDNLVLLNPEKYKAKSRSPGSPVGEGTGSPPKWQIGEQEFEALMRMLDNLGYRTGYPYRYPALREKSKKYSDVEVPASVTGYSFASDGDSGTCSPLRHSFQKQQREKTRWLNSGRGDEASEEGQNGSSPKSKTKWTKEDGHRTSTSAVPNLFVPLNTNPKEVQEMRNKIREQNLQDIKTAGPQSQVLCGVVMDRSLVQGELVTASKAIIEKEYQPHVIVSTTGPNPFTTLTDRELEEYRREVERKQKGSEENLDEAREQKEKSPPDQPAVPHPPPSTPIKLEEDLVPEPTTGDDSDAATFKPTLPDLSPDEPSEALGFPMLEKEEEAHRPPSPTEAPTEASPEPAPDPAPVAEEAAPSAVEEGAAADPGSDGSPGKSPSKKKKKFRTPSFLKKSKKKSDS
chain 2: RSLRLSAQKDLEQKEKHHVKMKAKRCATPVIIDEILPSKKMKVSNNKKKPEEEGSAHQDTAEKNASSPEKAKGRHTVPCMPPAKQKFLKSTEEQELEKSMKMQQEVVEMRKKNEEFKKLALAGIGQPVKKSVSQVTKSVDFHFRTDERIKQHPKNQEEYKEVNFTSELRKHPSSPARVTKGCTIVKPFNLSQGKKRTFDETVSTYVPLAQQVEDFHKRTPNRYHLRSKKDDINLLPSKSSVTKICRDPQTP

Variants of: B1
Assay: GST pull-down (immunoblot quantification)
Details: with GST-TPX2 aa 120–370 fusion protein [human]; lysates from HEK293 cells; five independent experiments; means ± s.d.; parent: 100; read off a plot

| percent of parent | Variant |
| --- | --- |
| 40% | chain 1 S726A |
